The results in this text go back to US20240270841A1 (LG CHEM, published 2024).

Numbering of substitutions follows the chain as printed.

The target in test [1] is T1, LILRB1 expressed on the surface of human natural killer cell KHYG-1 (human, UniProt Q8NHL6 24-650).
T1 construct: whole, on cells; also called LILRB1 on KHYG-1 cells; human NK cells (surface)
As to the kind of experiment: flow cytometry (iQue) on KHYG-1 NK cells, antibody 50 ug/mL. The procedure:
In order to test whether or not 93 antibodies selected in Example 1.4 bind LILRB1 expressed on surface of immune cells, natural killer cell (NK cell) surface binding assay was performed. A human NK cell, KHYG-1 cell (JCRB) was cultured in RPMI 1640 medium (Gibco) supplemented with 10%(w/v) of FBS (Gibco) and 100 U/mL of interleukin-2 (Novartis). KHYG-1 cells were added to a U-bottom 96-well tissue culture plate (BD Falcon) at the amount of 5×10⁴ cells/well. Each of the selected antibodies was added to the well to the final concentration of 50 μg/mL per well and incubated at 4° C. for 1 hour.
In order to see the level of LILRB1-specific binding of the selected antibodies, a human IgG4 isotype control antibody (Biolegend) was treated in the same manner. After washing with FACS buffer, the cells were treated with an anti-human Fc-biotin antibody (life technologies) and incubated at 4° C. for 1 hour. After washing with FACS buffer, the cells were treated with streptavidin PE (BD Pharmigen) and incubated at 4° C. for 30 minutes. After washing with FACS buffer, the cells were resuspended and subjected to analysis using iQue screener (Sartorius).

In test [2] the target is T2, human LILRB1 protein (LILRB1-His, RnD systems Cat. No. 8989-T2) (human, UniProt Q8NHL6 24-458).
T2 construct: Bought protein; also called human LILRB1-His; not shown: His tag
The test can be described thus: SPR (Biacore T200), antibody captured by anti-human IgG (Fc), LILRB1-His injected. As to the method: The binding affinities of the 93 antibodies, which were selected in Example 1.3, to the antigen, LILRB1, were measured using Biacore T200 (GE healthcare). An anti-human IgG (Fc) antibody (GE healthcare, Cat. No. BR-1008-39, final concentration of 25 μg/mL) was flowed at the flow rate of 5 μL/min for 360 seconds to be immobilized at 5000-7000 RU on Series S Sensor Chip CM5 (GE healthcare, Cat. No. BR-1005-30) using Amine Coupling Kit (GE healthcare, Cat. No. BR-1000-508).

In test [3] the target is T3, human LILRB1 overexpressed on CHO cells (human, UniProt Q8NHL6 24-650).
T3 construct: Full-length protein expressed from a vector in CHO cells; also called AAH15731
As to the kind of experiment: flow cytometry (iQue) on CHO cells overexpressing LILRB1, threefold dilutions. As to the method:
In order to determine EC₅₀ values of the antibodies prepared in Examples 1 and 4 for binding to human LILRB1-overexpressing cell lines, a cell surface binding assay was performed. Representing the prepared antibodies, EC₅₀ values of E3.1 and H11 antibodies were measured. The CHO cells prepared in Example 5, which overexpress LILRB1 on surface, were added to U-bottom 96-well tissue culture plate (BD Falcon) at the amount of 1×10⁵ cells/well. Threefold serial dilutions of E3.1 and H11 antibodies were prepared starting from the final concentrations of 600 ug/mL and 27 ug/mL, respectively. The cells were treated with each of the diluted antibodies and incubated at 4° C. for 60 minutes. After washing with FACS buffer, the cells were treated with anti-human Fc-biotin antibody (Invitrogen) and incubated at 4° C. for 30 minutes. After washing with FACS buffer, the cells were treated with streptavidin (BD Pharmigen) labeled with PE fluorescence and incubated at 4° C. for 30 minutes. After washing with FACS buffer, the cells were resuspended and subjected to analysis using iQue screener (Sartorius). EC₅₀ values were calculated using nonlinear regression formula of GraphPad Prism software, and the obtained results are shown in Table 28: […]

Test [4] deals with T4, human LILRA6 overexpressed on CHO cells (human, UniProt Q6PI73 24-481).
T4 construct: Full-length protein expressed in CHO cells; also called NP_001347096
As to the kind of experiment: flow cytometry (iQue screener), CHO cells overexpressing LILRA6, anti-human Fc-biotin + streptavidin-PE [panel LILRA6]. The procedure:
(§1) In order to confirm whether or not the selected antibodies bind to human LILR family proteins other than LILRB1, a cell surface binding assay was performed. The CHO cells (prepared in Example 5) expressing each of various LILR family proteins on surface were added to U-bottom 96-well tissue culture plate (BD Falcon) at the amount of 1×10⁵ cells/well. The cells in each well were treated with the selected antibody in the final concentration of 20 ug/mL and incubated at 4° C. for 60 minutes. After washing with FACS buffer, the cells were treated with anti-human Fc-biotin antibody (Invitrogen) and incubated at 4° C. for 30 minutes. After washing with FACS buffer, the cells were treated with streptavidin (BD Pharmigen) labeled with PE or FITC fluorescence and incubated at 4° C. for 30 minutes. After washing with FACS buffer, the cells were resuspended and subjected to analysis using iQue screener (Sartorius). The cells treated with each LILR protein specific antibody (Table 27) were used as a positive control, and the cells treated with human IgG4 isotype control antibody (Biolegend) were used as a negative control.

Test [5] addresses T5, human LILRB4 overexpressed on CHO cells (human, UniProt Q8NHJ6 22-448).
T5 construct: Full-length protein expressed in CHO cells; also called NP_001265355
The test can be described thus: flow cytometry (iQue screener), CHO cells overexpressing LILRB4, anti-human Fc-biotin + streptavidin-PE [panel LILRB4]. As to the method: as §1

The target of test [6] is T6, human LILRA4 overexpressed on CHO cells (human, UniProt P59901 24-499).
T6 construct: Full-length protein expressed in CHO cells; also called NP_036408
As to the kind of experiment: flow cytometry (iQue screener), CHO cells overexpressing LILRA4, anti-human Fc-biotin + streptavidin-PE [panel LILRA4]. The procedure: as §1

Test [7] deals with T7, human LILRB5 overexpressed on CHO cells (human, UniProt O75023 24-590).
T7 construct: Full-length protein expressed in CHO cells; also called NP_006831
The test can be described thus: flow cytometry (iQue screener), CHO cells overexpressing LILRB5, anti-human Fc-biotin + streptavidin-PE [panel LILRB5]. As to the method: as §1

The target in test [8] is T8, human LILRA5 overexpressed on CHO cells (human, UniProt A6NI73 42-299).
T8 construct: Full-length protein expressed in CHO cells; also called NP_067073
The test can be described thus: flow cytometry (iQue screener), CHO cells overexpressing LILRA5, anti-human Fc-biotin + streptavidin-PE [panel LILRA5]. The procedure: as §1

The target in test [9] is T9, human LILRB3 overexpressed on CHO cells (human, UniProt O75022 24-631).
T9 construct: Full-length protein expressed in CHO cells; also called XP_006726377
As to the kind of experiment: flow cytometry (iQue screener), CHO cells overexpressing LILRB3, anti-human Fc-biotin + streptavidin-PE [panel LILRB3]. As to the method: as §1

Test [10] addresses T10, human LILRA3 overexpressed on CHO cells (human, UniProt Q8N6C8 24-439).
T10 construct: Full-length protein expressed in CHO cells; also called AAH28208
As to the kind of experiment: flow cytometry (iQue screener, BL1-H channel), CHO cells overexpressing LILRA3, anti-human Fc-biotin + labelled streptavidin [panel LILRA3]. As to the method:
as §1

T2 sequence (Q8NHL6 24-458 limits assumed): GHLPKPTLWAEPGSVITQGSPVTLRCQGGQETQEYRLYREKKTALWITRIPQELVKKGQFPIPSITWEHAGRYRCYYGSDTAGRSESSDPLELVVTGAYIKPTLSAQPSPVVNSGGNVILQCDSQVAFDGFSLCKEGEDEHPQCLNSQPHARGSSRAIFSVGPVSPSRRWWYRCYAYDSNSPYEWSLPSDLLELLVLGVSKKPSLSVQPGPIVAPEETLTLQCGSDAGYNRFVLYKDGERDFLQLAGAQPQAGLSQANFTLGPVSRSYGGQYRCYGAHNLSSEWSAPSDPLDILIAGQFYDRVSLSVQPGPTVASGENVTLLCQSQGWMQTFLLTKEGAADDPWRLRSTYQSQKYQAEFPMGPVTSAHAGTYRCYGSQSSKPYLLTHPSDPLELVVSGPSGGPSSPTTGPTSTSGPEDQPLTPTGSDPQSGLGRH
T1 sequence (Q8NHL6 24-650): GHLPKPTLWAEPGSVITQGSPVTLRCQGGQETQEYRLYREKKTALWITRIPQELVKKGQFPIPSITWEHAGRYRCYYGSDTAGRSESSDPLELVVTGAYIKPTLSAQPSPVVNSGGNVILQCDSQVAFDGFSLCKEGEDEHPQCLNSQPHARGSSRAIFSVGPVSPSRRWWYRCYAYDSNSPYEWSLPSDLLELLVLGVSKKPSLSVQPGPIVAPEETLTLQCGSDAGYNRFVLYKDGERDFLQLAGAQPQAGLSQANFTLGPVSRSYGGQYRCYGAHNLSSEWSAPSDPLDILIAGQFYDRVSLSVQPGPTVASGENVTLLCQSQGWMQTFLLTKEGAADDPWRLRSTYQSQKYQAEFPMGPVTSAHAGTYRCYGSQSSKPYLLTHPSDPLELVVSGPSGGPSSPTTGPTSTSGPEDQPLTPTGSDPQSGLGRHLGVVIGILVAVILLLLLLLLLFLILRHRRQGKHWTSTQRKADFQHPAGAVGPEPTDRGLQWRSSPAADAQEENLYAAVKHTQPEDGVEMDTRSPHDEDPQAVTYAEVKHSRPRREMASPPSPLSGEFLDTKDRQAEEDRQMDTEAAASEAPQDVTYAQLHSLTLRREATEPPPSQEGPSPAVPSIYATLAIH
T8 sequence (A6NI73 42-299 limits assumed): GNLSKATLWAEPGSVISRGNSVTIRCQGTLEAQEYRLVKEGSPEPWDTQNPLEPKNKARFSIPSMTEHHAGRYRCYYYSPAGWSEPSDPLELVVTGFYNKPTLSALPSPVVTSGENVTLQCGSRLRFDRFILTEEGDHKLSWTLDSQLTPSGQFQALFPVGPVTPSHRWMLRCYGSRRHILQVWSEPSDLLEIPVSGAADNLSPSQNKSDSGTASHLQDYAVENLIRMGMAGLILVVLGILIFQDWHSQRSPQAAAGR
T10 sequence (Q8N6C8 24-439 A105V limits assumed): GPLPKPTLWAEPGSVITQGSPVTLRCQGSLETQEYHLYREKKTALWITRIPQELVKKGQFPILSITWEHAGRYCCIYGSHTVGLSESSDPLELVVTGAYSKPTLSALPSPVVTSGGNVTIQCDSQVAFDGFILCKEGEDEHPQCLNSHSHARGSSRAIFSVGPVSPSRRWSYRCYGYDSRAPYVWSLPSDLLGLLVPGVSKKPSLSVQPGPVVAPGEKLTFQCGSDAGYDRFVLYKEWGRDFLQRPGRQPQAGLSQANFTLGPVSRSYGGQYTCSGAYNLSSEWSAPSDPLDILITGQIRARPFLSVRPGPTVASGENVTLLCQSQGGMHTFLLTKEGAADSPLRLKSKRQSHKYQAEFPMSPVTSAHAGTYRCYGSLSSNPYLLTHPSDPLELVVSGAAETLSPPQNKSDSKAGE
T7 sequence (O75023 24-590 P542R limits assumed): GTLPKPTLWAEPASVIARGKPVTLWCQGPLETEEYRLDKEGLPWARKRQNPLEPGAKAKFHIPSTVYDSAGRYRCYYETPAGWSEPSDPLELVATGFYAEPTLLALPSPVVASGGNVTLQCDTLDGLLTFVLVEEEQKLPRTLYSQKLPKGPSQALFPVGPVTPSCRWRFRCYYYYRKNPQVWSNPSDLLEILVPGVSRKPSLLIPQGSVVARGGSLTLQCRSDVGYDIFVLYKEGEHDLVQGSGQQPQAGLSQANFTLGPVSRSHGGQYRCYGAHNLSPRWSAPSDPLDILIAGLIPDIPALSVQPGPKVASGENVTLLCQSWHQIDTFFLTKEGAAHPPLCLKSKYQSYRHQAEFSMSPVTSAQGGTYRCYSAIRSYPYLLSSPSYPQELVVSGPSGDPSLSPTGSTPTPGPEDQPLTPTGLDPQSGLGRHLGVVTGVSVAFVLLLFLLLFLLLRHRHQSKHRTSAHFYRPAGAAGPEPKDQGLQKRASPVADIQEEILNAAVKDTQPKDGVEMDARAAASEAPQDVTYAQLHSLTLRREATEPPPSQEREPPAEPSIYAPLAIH
T3 sequence (Q8NHL6 other isoform, or with tags, fused parts or gaps limits assumed): as the sequence (Q8NHL6 24-650) above, with L45P, I119T, S132I, E602K counted along it
T5 sequence (Q8NHJ6 22-448 D223G/Q414R limits assumed): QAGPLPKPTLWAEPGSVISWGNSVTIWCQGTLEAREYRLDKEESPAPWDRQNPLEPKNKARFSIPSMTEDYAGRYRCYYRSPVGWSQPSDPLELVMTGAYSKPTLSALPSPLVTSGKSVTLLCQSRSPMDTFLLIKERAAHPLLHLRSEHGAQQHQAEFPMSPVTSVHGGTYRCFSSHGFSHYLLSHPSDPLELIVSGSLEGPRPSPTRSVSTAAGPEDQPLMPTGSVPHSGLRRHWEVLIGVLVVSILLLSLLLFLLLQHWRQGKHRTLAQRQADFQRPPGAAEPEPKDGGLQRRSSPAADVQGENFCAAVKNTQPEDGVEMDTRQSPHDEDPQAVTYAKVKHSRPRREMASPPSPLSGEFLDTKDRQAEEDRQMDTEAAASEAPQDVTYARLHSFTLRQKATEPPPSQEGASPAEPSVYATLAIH
T9 sequence (O75022 other isoform, or with tags, fused parts or gaps limits assumed): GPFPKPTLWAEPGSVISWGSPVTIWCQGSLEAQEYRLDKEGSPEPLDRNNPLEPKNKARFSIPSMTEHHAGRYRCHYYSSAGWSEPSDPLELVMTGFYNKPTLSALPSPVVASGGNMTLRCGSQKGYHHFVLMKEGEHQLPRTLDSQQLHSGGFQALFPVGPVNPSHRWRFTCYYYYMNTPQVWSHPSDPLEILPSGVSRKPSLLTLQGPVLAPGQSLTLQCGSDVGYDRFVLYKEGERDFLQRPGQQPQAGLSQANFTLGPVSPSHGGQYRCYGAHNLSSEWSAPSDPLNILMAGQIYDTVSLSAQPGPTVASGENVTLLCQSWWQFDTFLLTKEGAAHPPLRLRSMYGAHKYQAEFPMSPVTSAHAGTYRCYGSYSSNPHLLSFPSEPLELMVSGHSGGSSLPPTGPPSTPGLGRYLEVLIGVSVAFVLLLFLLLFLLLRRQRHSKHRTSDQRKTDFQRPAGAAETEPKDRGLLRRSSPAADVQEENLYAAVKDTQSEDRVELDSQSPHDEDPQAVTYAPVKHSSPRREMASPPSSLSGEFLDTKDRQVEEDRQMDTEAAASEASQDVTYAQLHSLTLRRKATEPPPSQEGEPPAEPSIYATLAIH
T4 sequence (Q6PI73 24-481 limits assumed): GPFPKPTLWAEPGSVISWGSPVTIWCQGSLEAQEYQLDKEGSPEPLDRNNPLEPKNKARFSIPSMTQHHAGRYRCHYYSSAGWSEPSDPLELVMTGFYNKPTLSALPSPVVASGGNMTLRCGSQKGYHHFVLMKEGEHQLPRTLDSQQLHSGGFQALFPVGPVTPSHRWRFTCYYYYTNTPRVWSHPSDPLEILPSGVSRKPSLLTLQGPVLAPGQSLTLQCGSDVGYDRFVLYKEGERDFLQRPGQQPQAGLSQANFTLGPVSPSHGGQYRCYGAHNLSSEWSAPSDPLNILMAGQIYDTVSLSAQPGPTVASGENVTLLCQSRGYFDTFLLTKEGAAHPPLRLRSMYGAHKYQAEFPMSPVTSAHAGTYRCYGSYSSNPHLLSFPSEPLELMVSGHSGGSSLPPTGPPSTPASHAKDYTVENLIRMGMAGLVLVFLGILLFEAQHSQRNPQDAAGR
T6 sequence (P59901 other isoform, or with tags, fused parts or gaps limits assumed): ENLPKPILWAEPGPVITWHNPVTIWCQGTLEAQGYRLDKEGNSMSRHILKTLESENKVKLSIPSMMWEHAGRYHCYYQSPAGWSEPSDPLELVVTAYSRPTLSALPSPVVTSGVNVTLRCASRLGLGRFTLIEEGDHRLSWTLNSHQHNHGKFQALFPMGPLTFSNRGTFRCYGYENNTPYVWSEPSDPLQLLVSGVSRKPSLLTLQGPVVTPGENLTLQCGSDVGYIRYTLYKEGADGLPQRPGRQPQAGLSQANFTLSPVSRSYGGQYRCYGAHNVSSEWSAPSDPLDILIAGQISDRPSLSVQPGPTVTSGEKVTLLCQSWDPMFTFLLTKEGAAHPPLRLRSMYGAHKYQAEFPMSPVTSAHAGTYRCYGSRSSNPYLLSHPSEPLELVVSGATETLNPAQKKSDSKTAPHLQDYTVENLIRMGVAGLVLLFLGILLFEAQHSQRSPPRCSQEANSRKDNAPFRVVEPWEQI

B1: anti-LILRB1 antibody F12 (antibody, human IgG4 S228P, V domains shown)
VH: QVQLVQSGAEVKKPGESLKISCKGSGYSFTSYWIGWVRQMPGKGLEWMGIIYPGDSDTRYSPSFQGQVTISADKSISTAYLQWSSLKASDTAMYYCASQYYDGGYYMDVWGQGTLVTVSS
VL: QSVLTQPASVSGSPGQSITISCAGTSSDIGDYDYVSWYQQHPGKTPKLMIYDVSRRPSGVPDRFSGSKSGNTASLTISGLQTEDEADYYCASYTSSSVVVFGGGTKLTVLG
notes: human IgG4, lambda light chain; also called Antibody clone F12
Turning to B1, in test [1], the “% of population 2” value is 38% and the “Mean Fluorescence Intensity” value was 262000. In test [2], this molecule returned a dissociation constant (Kd) of 3.46 nM, a koff of 0.000973 s⁻¹ and an on-rate (kon) of 281000 M⁻¹ s⁻¹.

B2: anti-LILRB1 antibody G9 (antibody, human IgG4 S228P, V domains shown)
VH: B1 VH with S7P
VL: QSALTQPASVSGSPGQSITISCTGSSSDVGGYNYVSWYQQHPGKAPKLMIYDVSNRPSGVSDRFSGSKSGNMASLTISGLQAEDEADYYCSSYTGSSTLDVLFGGGTKLTVLG
notes: human IgG4, lambda light chain; also called Antibody clone G9
On to B2, for which, in test [1], the “% of population 2” value was 41.3% and the “Mean Fluorescence Intensity” value was 263000. In test [2], this molecule yielded a Kd of 3.05 nM, a koff of 0.000436 s⁻¹ and an on-rate (kon) of 143000 M⁻¹ s⁻¹.

B3: anti-LILRB1 antibody G11 (antibody, human IgG4 S228P, V domains shown)
VH: B1 VH
VL: QSALTQPRSVSGSPGQSVTISCTGTSSDVGGYNYVSWYQQHPGKAPKLMIYDVSKRPSGVPDRFSGSKSGNTASLTISGLQAEDEADYYCSSYSSSSTLVVFGGGTKLTVLG
notes: human IgG4, lambda light chain; also called Antibody clone G11
As to B3, in [1], the “% of population 2” value came to 40.1% and the “Mean Fluorescence Intensity” value was determined as 263000. For the same molecule, in test [2], the dissociation constant Kd was 45.2 nM, the off-rate constant (koff) was determined as 0.00205 s⁻¹ and the kon worked out at 45400 M⁻¹ s⁻¹.

B4: anti-LILRB1 antibody H11 (antibody, human IgG4 S228P, V domains shown)
VH: QVQLVQSGAEVKKPGASVKVSCKASGYTFTSYYMHWVRQAPGQGLEWMGIINPSGGSTSYAQKFQGRVTMTRDTSTSTVYMELSSLRSEDTAVYYCARDAGSSSDYWGRGTLVTVSS
VL: SYELTQDPAASVALGQTVRITCQGDSLRSYYASWYQQKPGQAPVVVIYGRNNRPSGIPDRFSGSSSGDTASLTITGAQAEDEADYYCKSRDSSGNHYVFGTGTKLTVLG
notes: human IgG4, lambda light chain; also called Antibody clone H11
Turning to B4, in test [1], the “% of population 2” value was 32.6%. Besides, the “Mean Fluorescence Intensity” value in test [1] worked out at 245000. The EC50 in test [3] turned out to be 0.376 nM. The same molecule yielded a Kd in test [2] of 7.62 nM. Moreover, the koff in test [2] worked out at 0.00226 s⁻¹. The molecule further showed a kon in [2] of 296000 M⁻¹ s⁻¹. For the same molecule, the binding result in test [4], in [5], in test [6], in test [7], in test [8] and in [9] was “no binding (tested: 20 ug/mL)” each time. Further, in test [10], the binding result is given as “no binding (tested: 20 ug/mL)”.

B5: anti-LILRB1 antibody G1 (antibody, human IgG4 S228P, V domains shown)
VH: EVQLVQSGAEVKKPGSSVKVSCKASGGTFSSYGISWVRQAPGQGLEWMGWISAYNGNTNYAQELQGRVTMTTDTSTSTAYMELRSLRSDDTAVYYCARVGVAGKLDYWGQGTLVTVSS
VL: SYELTQPPSLSVSPGQTASITCSGYKLGDRYVSWYQQKTGQSPVVVIYKDSQRPSGVPERFSGSNSGNTATLTISGTQAMDEADYYCQAWDSGTGVFGGGTKLTVLG
notes: human IgG4, lambda light chain; also called Antibody clone G1
For B5, in test [1], the “% of population 2” value stood at 56.2% and the “Mean Fluorescence Intensity” value came to 321000. In test [2], this molecule yielded an equilibrium dissociation constant (Kd) of 3.28 nM, a koff of 0.00142 s⁻¹ and an association rate constant (kon) of 433000 M⁻¹ s⁻¹.

B6: anti-LILRB1 antibody H2 (antibody, human IgG4 S228P, V domains shown)
VH: QVQLVQSGAEVKKPGASVKVSCKASGYTFTSYDIHWVRQATGQGLEWMGWISAYNGNTNYAQKLQGRVTMTTDTSTSTAYMELRSLRSDDTAVYYCARDGGDAFDIWGQGTLVTVSS
VL: SYELTQDPAVSVALGQTVRITCQGDSLRNYYASWYQQKPGQAPILVISGNNKRPSGIPDRFSGSSSGDTASLTISGAQAEDEADYYCNSLDSTYNHPIFGGGTKVTVLG
notes: human IgG4, lambda light chain; also called Antibody clone H2
Consider B6, for which, in [1], the “% of population 2” value amounted to 29% and the “Mean Fluorescence Intensity” value stood at 239000. In test [2], this molecule gave an equilibrium dissociation constant (Kd) of 16.2 nM, a koff of 0.0095 s⁻¹ and a kon of 586000 M⁻¹ s⁻¹.
